From publication PMC5982823, “The Pseudokinase Domain of Saccharomyces cerevisiae Tra1 Is Required for Nuclear Localization and Incorporation into the SAGA and NuA4 Complexes” (G3: Genes|Genomes|Genetics, 2018)

Key:
Assay in all cases: affinity purification with mass spectrometry; tandem affinity purification of TAP-tagged Epl1 or Ada2 from lysates of TRA1 or tra1 Q3 strains (260 mg or 170 mg protein): IgG beads 2 h at 4°, IPP150 (10 mM Tris-HCl pH 8.0, 150 mM NaCl), TEV cleavage, calmodulin beads, EGTA elution; SDS-PAGE, Coomassie Brilliant Blue; bands identified by MALDI mass spectrometry or predicted from mass; band intensity by ImageJ
[1] = target: TAP-tagged Ada2 (S. cerevisiae) (UniProt Q02336)
[2] = target: TAP-tagged Epl1 (S. cerevisiae) (UniProt P43572)
TAP-tagged Epl1 (S. cerevisiae), sequence (P43572 whole entry): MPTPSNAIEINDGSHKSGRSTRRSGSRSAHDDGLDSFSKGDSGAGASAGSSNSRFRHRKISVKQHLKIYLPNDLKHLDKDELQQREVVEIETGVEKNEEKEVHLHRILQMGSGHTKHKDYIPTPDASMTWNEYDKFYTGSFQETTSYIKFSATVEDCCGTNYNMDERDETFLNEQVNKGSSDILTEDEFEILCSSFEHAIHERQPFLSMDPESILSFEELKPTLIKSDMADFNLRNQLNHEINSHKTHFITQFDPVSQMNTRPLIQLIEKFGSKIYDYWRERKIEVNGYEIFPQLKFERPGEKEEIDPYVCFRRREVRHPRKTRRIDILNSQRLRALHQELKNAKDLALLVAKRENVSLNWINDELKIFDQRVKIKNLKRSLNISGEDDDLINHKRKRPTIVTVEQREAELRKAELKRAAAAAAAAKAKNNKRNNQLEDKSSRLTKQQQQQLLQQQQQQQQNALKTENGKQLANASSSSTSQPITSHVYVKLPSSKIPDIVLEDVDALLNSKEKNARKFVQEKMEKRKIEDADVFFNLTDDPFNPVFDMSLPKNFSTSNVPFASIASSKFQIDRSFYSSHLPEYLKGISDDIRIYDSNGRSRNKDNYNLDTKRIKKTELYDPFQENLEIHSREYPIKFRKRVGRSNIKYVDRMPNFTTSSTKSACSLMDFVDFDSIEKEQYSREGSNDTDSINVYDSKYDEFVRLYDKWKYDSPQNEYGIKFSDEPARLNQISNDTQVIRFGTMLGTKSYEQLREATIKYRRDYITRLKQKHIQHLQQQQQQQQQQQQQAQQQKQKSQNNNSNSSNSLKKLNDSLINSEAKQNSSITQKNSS

TAP-tagged Ada2 = target: T1, TAP-tagged Ada2 (S. cerevisiae, UniProt Q02336 1-434); conditions: partners not purified
T1 construct: Ada2, SAGA component, S. cerevisiae; TAP-tagged ADA2; Held on IgG beads, released with TEV protease, then held on calmodulin beads, so part of the TAP tag is cut off during the purification; also called TAP-Ada2; TAP-ADA2; source: S. cerevisiae strain with TAP-tagged ADA2 (bought: Open Biosystems YSC1178-202230655; crossed with CY6582 for the tra1 Q3 strain CY7042), in lysate of cells ground in …
T1 sequence (looked up): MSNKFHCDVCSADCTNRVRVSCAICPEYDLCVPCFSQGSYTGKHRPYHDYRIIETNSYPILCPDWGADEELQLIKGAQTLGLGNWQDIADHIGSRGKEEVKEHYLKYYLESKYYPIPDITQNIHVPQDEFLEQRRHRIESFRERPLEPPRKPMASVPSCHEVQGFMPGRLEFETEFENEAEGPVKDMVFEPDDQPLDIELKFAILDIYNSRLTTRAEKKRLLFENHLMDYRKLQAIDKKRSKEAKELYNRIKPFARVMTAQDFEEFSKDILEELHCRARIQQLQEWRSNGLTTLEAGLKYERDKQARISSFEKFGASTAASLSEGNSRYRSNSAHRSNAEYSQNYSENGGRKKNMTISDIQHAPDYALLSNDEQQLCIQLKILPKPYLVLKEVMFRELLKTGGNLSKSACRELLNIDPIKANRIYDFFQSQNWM

Molecule: Tra1 Q3 (R3389Q, R3390Q, R3456Q), P38811 1-3744
- fold decrease against wild-type Tra1 [1]: 6.5 fold
- fold decrease against wild-type Tra1 [2]: 6.7 fold

B1: full length Spt20 (natural protein, UniProt P50875 1-604, looked up)
chain: MSANSPTGNDPHVFGIPVNATPSNMGSPGSPVNVPPPMNPAVANVNHPVMRTNSNSNANEGTRTLTREQIQQLQQRQRLLLQQRLLEQQRKQQALQNYEAQFYQMLMTLNKRPKRLYNFVEDADSILKKYEQYLHSFEFHIYENNYKICAPANSRLQQQQKQPELTSDGLILTKNNETLKEFLEYVARGRIPDAIMEVLRDCNIQFYEGNLILQVYDHTNTVDVTPKENKPNLNSSSSPSNNNSTQDNSKIQQPSEPNSGVANTGANTANKKASFKRPRVYRTLLKPNDLTTYYDMMSYADNARFSDSIYQQFESEILTLTKRNLSLSVPLNPYEHRDMLEETAFSEPHWDSEKKSFIHEHRAESTREGTKGVVGHIEERDEFPQHSSNYEQLMLIMNERTTTITNSTFAVSLTKNAMEIASSSSNGVRGASSSTSNSASNTRNNSLANGNQVALAAAAAAAAVGSTMGNDNNQFSRLKFIEQWRINKEKRKQQALSANINPTPFNARISMTAPLTPQQQLLQRQQQALEQQQNGGAMKNANKRSGNNATSNNNNNNNNLDKPKVKRPRKNAKKSESGTPAPKKKRMTKKKQSASSTPSSTTMS
notes: Spt20, S. cerevisiae, full length band in the TAP-Ada2 purification; source: endogenous, S. cerevisiae lysate
- fold decrease of full length Spt20 in the TAP-Ada2 pull down, tra1 Q3 strain against the wild-type strain (TAP-tagged Ada2): 2.1 fold
